Test results published in PMC11700871 (Theranostics, 2025).
Read-outs that look alike come from different tables or passages of the source. Where a SMILES comes first, the peptide text is derived from it. The star is where a group is joined. X1 = O=C(O)c1cc(N*)ccc1O

Columns and labels:
[1] = system: LO-2 cells; assay: Expression of Cat-B and CHOP in hepatocytes after drug exposure; format: cell-based, human; details: LO-2 cells after treatment with APAP
From the text: We initially investigated the changes within human hepatocytes in response to drug exposure.

[2] = system: APAP-induced ALF model; assay: Therapeutic efficacy in APAP-induced ALF mouse model; format: in vivo, C57BL/6 mice; details: ALF mice
Experimental: The in vivo therapeutic efficacy of SPNs was evaluated in an APAP-induced ALF model.
Following 24 h of treatment, liver tissue was collected from the mice and then stained with H&E, fluorescent dye-conjugated antibodies (TNF-α, 506303, Biolegend; IL-6, 504503, Biolegend; and IL-10, 505005, Biolegend) or TUNEL (G3250, Promega). A portion of the liver tissues was dispersed in lysis buffer and subsequently centrifuged to remove debris, followed by western blot for MAPK and assessment of cytokines, such as TNF-α, IL-6, IL-1β and IL-10, via ELISA assays. Hematological parameters were analyzed by KNOTUS (Incheon, Republic of Korea).

[3] = system: healthy LO-2 cells
Experimental: (§2) The cells were then washed with DPBS and dispersed in lysis buffer, followed by centrifugation at 12,000 rpm for 30 min to remove cell debris. Subsequently, the proteins were quantified using a BCA assay kit (23221, Thermo Fisher Scientific), boiled after mixing with sodium dodecyl sulfate loading buffer (NaraBio, Gyeonggi-do, Republic of Korea) for 5 min, and separated by 10% SDS polyacrylamide gel electrophoresis. […] HMGB1 and HSP70 were analyzed in the supernatants after incubating LO-2 cells using the same protocol described above. Finally, the membranes were incubated with goat anti-rabbit immunoglobulin-HRP antibody for 2 h.

[4] = system: normal C57BL/6 mice; details: mouse, in vivo
Experimental: The body weight was measured every two days. Seven days after treatment, the hematological parameters were assessed, including AST, ALT, BUN, creatinine, LDH, CK, red blood cell (RBC), hemoglobin (HGB), hematocrit (HCT), platelet (PLT), white blood cell (WBC), neutrophil (NEU) and lymphocyte (LYM). Major organs were collected from the mice and then observed using optical microscopy after H&E staining (BX 51, Olympus, USA). The levels of TNF-α, IL-1β and IL-6 in homogenized kidney tissues were quantified via ELISA assays.

[5] = target: T1, Cat-D (Homo sapiens, UniProt P07339); assay: Enzyme-specific cleavage by HPLC, Cat-D; format: in vitro ADME; details: 24 h, pH 5.5 MES buffer, 37°C
T1 construct: purchased R&D systems 1014-AS
Experimental: (§1) After a 30 min reaction, the final product was purified and analyzed using an LC/MS system (Agilent 1200 Series HPLC system). The hydrodynamic size and zeta potential were analyzed by using a Zetasizer (Nano ZS, Malvern Instruments, Worcestershire, UK). The morphology of SPNs in distilled water was observed using transmission electron microscopy (CM-200, Philips, USA). The target enzyme-specific cleavage was evaluated through HPLC analysis after incubation with Cat-B (953CY, R&D systems, MN, USA), Cat-E (1294-AS, R&D systems), Cat-D (1014-AS, R&D systems), Cat-L (952-CY, R&D systems), MMP-9 (911-MP, R&D systems) or Cas-3 (707-C3/CF, R&D systems) in pH 5.5 2-(N-morpholino)ethane sulfonic acid (MES) buffer at 37°C.

[6] = system: MIHA cells; assay: Cytotoxicity assay (CCK-8), MIHA; format: cell-based, human; details: 0 to 20 mM, 24 h, compared with mesalamine
[7] = target: T2, Cat-L (Homo sapiens, UniProt P07711); assay: Enzyme-specific cleavage by HPLC, Cat-L; format: in vitro ADME; details: 24 h, pH 5.5 MES buffer, 37°C
T2 construct: purchased R&D systems 952-CY
Experimental: as §1

[8] = target: T3, matrix metalloproteinase 9 (MMP-9) (Homo sapiens, UniProt P14780); assay: Enzyme-specific cleavage by HPLC, MMP-9; format: in vitro ADME; details: 24 h, pH 5.5 MES buffer, 37°C
T3 construct: purchased R&D systems 911-MP
Experimental: as §1

[9] = system: LO-2 cells; assay: Cytotoxicity assay (CCK-8), LO-2; format: cell-based, human; details: 0 to 20 mM, 24 h, compared with mesalamine
[10] = target: T4, Cat-B (Homo sapiens, UniProt P07858); assay: Enzyme-specific cleavage by HPLC, Cat-B; format: in vitro ADME; details: 1 h, pH 5.5 MES buffer, 37°C, HPLC and LC/MS
T4 construct: purchased R&D systems 953CY
Experimental: as §1

[11] = target: T5, Caspase 3 (Cas-3) (Homo sapiens, UniProt P42574); assay: Enzyme-specific cleavage by HPLC, Caspase 3; format: in vitro ADME; details: 24 h, pH 5.5 MES buffer, 37°C
T5 construct: purchased R&D systems 707-C3/CF
T5 sequence (P42574 29-175 limits assumed): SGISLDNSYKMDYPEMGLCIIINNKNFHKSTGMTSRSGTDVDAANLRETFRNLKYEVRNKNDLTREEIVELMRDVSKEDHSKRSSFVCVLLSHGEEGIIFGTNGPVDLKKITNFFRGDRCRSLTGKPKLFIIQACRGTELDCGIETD
T5 sequence (P42574 176-277 limits assumed): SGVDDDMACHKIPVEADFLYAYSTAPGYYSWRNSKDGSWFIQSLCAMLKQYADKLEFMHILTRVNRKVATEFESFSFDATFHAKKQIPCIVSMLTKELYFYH
Experimental: as §1

[12] = target: T6, Cat-E (Homo sapiens, UniProt P14091); assay: Enzyme-specific cleavage by HPLC, Cat-E; format: in vitro ADME; details: 24 h, pH 5.5 MES buffer, 37°C
T6 construct: purchased R&D systems 1294-AS
T6 sequence (P14091 54-396): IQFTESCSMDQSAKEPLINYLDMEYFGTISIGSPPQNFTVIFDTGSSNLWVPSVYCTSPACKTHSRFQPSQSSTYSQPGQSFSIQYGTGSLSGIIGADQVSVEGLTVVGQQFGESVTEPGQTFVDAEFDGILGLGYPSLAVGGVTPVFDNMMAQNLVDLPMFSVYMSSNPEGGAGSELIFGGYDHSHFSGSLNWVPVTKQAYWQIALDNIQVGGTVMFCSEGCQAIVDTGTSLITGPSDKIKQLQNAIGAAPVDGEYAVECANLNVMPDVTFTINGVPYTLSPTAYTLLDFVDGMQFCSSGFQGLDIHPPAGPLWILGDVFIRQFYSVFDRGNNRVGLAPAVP
Experimental: as §1

[13] = system: HepG2 cells; assay: Cytotoxicity assay (CCK-8), HepG2; format: cell-based; details: 0 to 20 mM, 24 h, compared with mesalamine
[14] = Biodistribution by NIRF imaging in naive and ALF mice; format: in vivo, C57BL/6 mice; details: ALF mice, intravenous
Experimental: The in vivo behavior of SPNs was assessed in healthy mice and APAP-induced ALF models. […] Fluorescence intensity in the images was quantified using LivingImage software. Ex vivo NIRF imaging was conducted with major organs collected from the mice 9 h post-treatment.

[15] = system: healthy LO-2 cells; assay: Release of DAMPs (HMGB1, HSP70) from healthy hepatocytes; details: supernatants, western blot
Experimental: as §2

T1 sequence (P07339 65-412): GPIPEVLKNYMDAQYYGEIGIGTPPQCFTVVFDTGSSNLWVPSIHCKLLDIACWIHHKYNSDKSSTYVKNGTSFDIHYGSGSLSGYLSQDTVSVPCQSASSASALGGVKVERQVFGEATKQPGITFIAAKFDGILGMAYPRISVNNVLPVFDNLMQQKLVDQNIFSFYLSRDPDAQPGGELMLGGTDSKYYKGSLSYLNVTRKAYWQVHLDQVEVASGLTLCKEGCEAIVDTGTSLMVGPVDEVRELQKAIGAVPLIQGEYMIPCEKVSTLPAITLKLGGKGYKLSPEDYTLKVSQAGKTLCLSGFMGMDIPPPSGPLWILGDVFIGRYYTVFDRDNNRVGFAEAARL
T2 sequence (P07711 114-333): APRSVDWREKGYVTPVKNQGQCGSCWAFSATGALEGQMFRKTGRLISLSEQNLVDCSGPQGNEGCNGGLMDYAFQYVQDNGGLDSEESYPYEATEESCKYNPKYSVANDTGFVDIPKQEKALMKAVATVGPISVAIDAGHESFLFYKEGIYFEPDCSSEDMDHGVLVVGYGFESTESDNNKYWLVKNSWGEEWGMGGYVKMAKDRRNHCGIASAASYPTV
T3 sequence (P14780 94-707): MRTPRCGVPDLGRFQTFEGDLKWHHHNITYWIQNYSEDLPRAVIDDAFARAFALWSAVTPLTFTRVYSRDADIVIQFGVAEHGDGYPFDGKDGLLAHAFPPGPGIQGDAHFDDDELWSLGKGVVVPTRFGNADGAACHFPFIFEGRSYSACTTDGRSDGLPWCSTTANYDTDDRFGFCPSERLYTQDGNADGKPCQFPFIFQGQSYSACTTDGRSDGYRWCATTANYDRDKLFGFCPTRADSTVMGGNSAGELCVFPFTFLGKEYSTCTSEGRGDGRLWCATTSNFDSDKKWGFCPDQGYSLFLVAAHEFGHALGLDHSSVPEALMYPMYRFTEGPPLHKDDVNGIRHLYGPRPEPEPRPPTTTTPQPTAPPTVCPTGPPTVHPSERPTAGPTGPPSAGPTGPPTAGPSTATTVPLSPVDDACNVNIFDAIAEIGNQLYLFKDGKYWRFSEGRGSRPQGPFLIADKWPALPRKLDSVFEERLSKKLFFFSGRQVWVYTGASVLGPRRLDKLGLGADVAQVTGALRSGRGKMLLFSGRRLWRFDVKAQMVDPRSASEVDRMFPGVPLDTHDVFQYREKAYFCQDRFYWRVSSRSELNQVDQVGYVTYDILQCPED

With `CC(=O)Nc1ccc(O)cc1` [APAP, acetaminophen] the “Cat-B level compared to the naive cells” value [1] was 4.22 fold and the “increase in C/EBP homologous protein (CHOP) compared to the naive cells” value [1] was 1.58 fold.
In the case of `CC(=O)N[C@@H](CS)C(=O)O` [NAC, N-acetylcysteine], the “effects in preventing body weight loss and histohematological changes” value ([2]; NAC 100 mg/kg i.v., compared with SPNs) is reported as “limited effects”.
For `CC(=O)N[C@@H](Cc1ccccc1)C(=O)N[C@@H](CCCNC(=N)N)C(=O)N[C@@H](CCCNC(=N)N)C(=O)NCC(=O)Nc1ccc(O)c(C(=O)O)c1` [SPNs] (Ac-FRRG-X1), the “release of DAMPs (HMGB1 and HSP70)” value [3] was “did not increase DAMP release”, the “histopathological toxicities in major organs” value [4] was “not observed” and the “cleavage upon incubation with Cat-D” value [5] was “no detectable cleavage”. For the same compound, the “toxicity to MIHA cells (cell viability)” value [6] was “significantly minimized the toxicity of mesalamine”, the “cleavage upon incubation with Cat-L” value [7] was “no detectable cleavage” and the “cleavage upon incubation with MMP-9” value [8] was “no detectable cleavage”. The “toxicity to LO-2 cells (cell viability)” value [9] was “significantly minimized the toxicity of mesalamine”, the “cleavage upon incubation with Cat-B” value [10] was “completely decomposed into mesalamine” and the “cleavage upon incubation with Cas-3” value [11] was “no detectable cleavage”. The “cleavage upon incubation with Cat-E” value [12] was “no detectable cleavage” and the “toxicity to HepG2 cells (cell viability)” value [13] was “significantly minimized the toxicity of mesalamine”.
For `CCN1\C(=C/C=C/C=C/C2=[N+](CCCCCC(=O)O)c3ccc4c(S(=O)(=O)O)cc(S(=O)(=O)O)cc4c3C2(C)C)C(C)(C)c2c1ccc1c(S(=O)(=O)[O-])cc(S(=O)(=O)O)cc21` [free Cy5.5], the “in vivo clearance (NIRF imaging)” value [14] was “rapid in vivo clearance”.
In the case of `Nc1ccc(O)c(C(=O)O)c1` [mesalamine], the “release of DAMPs (HMGB1 and HSP70)” value [15] is reported as “significantly higher levels”, the “histopathological toxicities in major organs” value [4] is reported as “substantial structural abnormalities and damaged areas in major organs” and the body weight change ([2]; 24 h of treatment, mesalamine or SPNs 5 mg/kg mesalamine content i.v.) is reported as “even more severe weight loss relative to the PBS group”. The “AST and ALT levels” value ([2]; 24 h post-treatment, 5 mg/kg mesalamine content i.v.) was “higher levels of these parameters compared to the PBS group”.
